In this data set the test system is carboxylation of FIXgla-PC reporter protein in HEK293 cells (reduction of KO to vitamin K). Nature of the data set: Cell-based VKOR activity assay: recombinant VKOR/VKORH expressed in FIXgla-PC/HEK293 cells with KO and warfarin, carboxylated reporter by ELISA. Details: species or system human. The settings on record: for ability to promote carboxylation of the reporter protein compared to recombinant human VKOR: FIXgla-PC HEK293 (FIGS. 9, 10); for amount of carboxylated reporter protein with mutated recombinant human VKOR: FIG. 12, compared to human VKOR Y139F; for Relative activity: Human Y139F: VKOR of the organism compared to human Y139F VKOR, cell-based carboxylation; for ability of human VKOR with replaced residues 122-139 to use KO to carboxylate the reporter: 48 h, HEK293 (FIG. 11C); for sensitivity to warfarin: warfarin level used in these assays. Background: In an ELISA, binding on a coated surface is turned into a signal by an enzyme label.

Entries after “also recorded” stand apart in the source; their conditions may differ.

Consider “VKOR: human vitamin K epoxide reductase, AAS01052, SEQ ID NO:5”, for which the “activity in cell-based in vivo activity assays” value is “active in the vitamin K cycle”.

B1: C51A/Y139F: human VKOR with C51A and Y139F mutations (protein)
chain: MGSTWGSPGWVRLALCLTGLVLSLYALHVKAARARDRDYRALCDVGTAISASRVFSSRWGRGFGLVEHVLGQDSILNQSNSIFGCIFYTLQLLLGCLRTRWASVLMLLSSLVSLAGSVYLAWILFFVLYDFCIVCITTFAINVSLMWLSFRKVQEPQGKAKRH
modifications: Human VKOR with C51A mutation
notes: human VKOR with C51A and Y139F mutations
For the molecule B1, the “ability to promote carboxylation of the reporter protein compared to recombinant human VKOR” value (from here on “ability … compared to recombinant human VKOR”) (5 μM KO, 2 μM warfarin) is given as “greater activity”. The “carboxylation of reporter protein by human VKOR cysteine mutants” value (Y139F background, 4 μM warfarin, HEK293 (FIG. 13)) is given as “greater activity than VKORY139F”. For the same molecule, where the note is “both human forms carry Y139F, 5 μM KO, 2 μM warfarin”, the “activity relative to human VKOR (Y139F)” value is on record as “about 2 fold”.

B2: Y139W_IV133PY: human VKOR with residue 139 changed to W and IV at 133-134 changed to PY (protein, UniProt Q9BQB6 1-163, looked up, variant Y139W I133P V134Y)
Vitamin K epoxide reductase …: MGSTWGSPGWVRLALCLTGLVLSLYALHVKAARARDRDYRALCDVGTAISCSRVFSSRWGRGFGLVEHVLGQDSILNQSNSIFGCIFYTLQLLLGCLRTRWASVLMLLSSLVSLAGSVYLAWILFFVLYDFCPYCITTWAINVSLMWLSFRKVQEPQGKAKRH
B2: the “amount of carboxylated reporter protein with mutated recombinant human VKOR” value is listed as “does not restore activity”.

B3: Y139W: human VKOR with tyrosine 139 mutated to tryptophan (protein, UniProt Q9BQB6 1-163, looked up, variant Y139W)
Vitamin K epoxide reductase …: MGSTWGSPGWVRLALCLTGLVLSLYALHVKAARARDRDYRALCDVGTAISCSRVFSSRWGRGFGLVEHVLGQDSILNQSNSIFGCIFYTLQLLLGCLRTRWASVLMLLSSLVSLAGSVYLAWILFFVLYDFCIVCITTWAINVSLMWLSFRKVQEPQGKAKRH
For the molecule B3, the “amount of carboxylated reporter protein with mutated recombinant human VKOR” value is reported as “further reduction”.

B4: Platypus: duck-billed platypus VKOR, SEQ ID NO:16, lacks cysteines corresponding to 43 and 51 (protein, listed as Ornithorhynchus anatinus)
chain: MGAWVPTRSARVVGPRALGSRVATAVQPSAVDPDTRHDRIPSLRWGRGFGLVEMVLGPDSSLNQPNSVFGLLFYSLQLLLGCSRAPWTSVVLALSSLLSLAGSLYLAWILFFVLHDFCFVCITTYAINVGLALLNYRRLKQAQGKVMKYCDESSPASSLLERRFYSGGGLRNGGSAASFPFPPATGH
As for B4, the “Relative activity: Human Y139F” value is “No”. Moreover, the “ability … compared to recombinant human VKOR” value (5 μM KO, 2 μM warfarin) was “inactive”.

B5: hVKOR Synechococcus: human VKOR with residues 122-139 replaced by Synechococcus VKOR 120-137, SEQ ID NO:31 (protein)
chain: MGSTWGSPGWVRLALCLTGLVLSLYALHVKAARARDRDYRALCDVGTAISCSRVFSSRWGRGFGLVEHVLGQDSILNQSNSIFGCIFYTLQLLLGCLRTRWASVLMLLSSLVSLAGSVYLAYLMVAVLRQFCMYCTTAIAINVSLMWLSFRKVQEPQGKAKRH
modifications: Human VKOR with amino acids 122-139 substituted with amino acids 120-137 of Synechococcus sp. JA-2-3B′a(2-13) VKOR (RefSeq accession no. YP_478481)
For B5, for the setting “5 μM KO, 2 μM warfarin”, the “ability of human VKOR with replaced residues 122-139 to use KO to carboxylate the reporter” value was “only the human VKOR substituted with the M. tuberculosis domain functions as a VKOR”.

B6: Hamster: Syrian golden hamster (AV12) VKOR, SEQ ID NO:3, Y139F warfarin resistant (protein, listed as Cricetulus griseus)
chain: MGTTWRSPGRWRLALCLAGLALSLYALHVKAARARDEDYRALCDVGSAISCSRVFSSRWGKGLGLVEHVLGPDSVLNQNSIFGCIFYTIQLLLGCLRGRWAFLLLVLSSLVSFAGSVYLAWILFFVLYDFCIVCITTYVINVGLMLLNFQDVPEHKAKRH
As to B6, the “Relative activity: Human Y139F” value is given as “Yes, greater”. Besides, under “5 μM KO, 2 μM warfarin”, the “ability … compared to recombinant human VKOR” value is “undiminished ability”.

B7: MT-VKORH: Mycobacterium tuberculosis VKOR homologue, NP_217484, SEQ ID NO:18 (protein, listed as Mycobacterium tuberculosis)
chain: MVAARPAERSGDPAAVRVPVPSAWWVLIGGVIGLFASMTLTVEKVRILLDPIYVPSCNVNPIVSCGSVMTTPQASLLGFPNPLLGIAGFTVVVVTGVLAVAKVPLPRWYWIGLAVGILVGVAFVHWLIFQSLYRIGALCPYCMVVWAVIATLLVVVASIVFGPMRENRGSQERVGARLLYQWRWSLATLWFTTVFLLIMVRFWDYSTLI
For B7, the sensitivity to warfarin result is listed as “naturally resistant to warfarin”. For the same molecule, the “ability … compared to recombinant human VKOR” value (5 μM KO, 2 μM warfarin) was “greater activity”. For the same molecule, the “support of carboxylation of the reporter protein with KO as substrate” value (5 μM KO, 4 μM warfarin, 48 h (FIG. 15B)) is “supported carboxylation of the reporter protein”. Further, where the note is “listed as VKOR from Mycobacterium tuberculosis”, the sensitivity to warfarin result was “resistant to warfarin at the doses employed”.

B8: hVKOR Roseiflexus: human VKOR with residues 122-139 replaced by Roseiflexus VKOR 300-317, SEQ ID NO:33 (protein)
chain: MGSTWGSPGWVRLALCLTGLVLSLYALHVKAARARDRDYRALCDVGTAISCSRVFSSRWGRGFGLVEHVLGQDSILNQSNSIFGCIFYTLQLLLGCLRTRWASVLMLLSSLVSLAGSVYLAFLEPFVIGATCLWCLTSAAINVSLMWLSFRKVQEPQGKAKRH
modifications: Human VKOR with amino acids 122-139 substituted with amino acids 300-317 of Roseiflexus sp. RS-1 VKOR (RefSeq accession no. YP_001274867)
As for B8, the “ability of human VKOR with replaced residues 122-139 to use KO to carboxylate the reporter” value (5 μM KO, 2 μM warfarin) is reported as “only the human VKOR substituted with the M. tuberculosis domain functions as a VKOR”.

B9: Nematostella: VKOR from Nematostella rendered warfarin resistant by Y135F mutation, SEQ ID NO:10 (protein, listed as Nematostella vectensis)
chain: MDKLGGFRMMLCVAGVFLSAYALNVEVSKSNNKDYRAICDISEKISCSKVFSSKYGTGFGLVEPIFGKDSTLNVPNSIFGIMFYTMVFLLGFSRSKLAAQLSVFSAVLSCLGSVYLGCILYFVLQDVCIICISTYVVNACLLVVNSLSLVNLQERTKRKQK
Turning to B9, the “Relative activity: Human Y139F” value is on record as “Yes, greater”. The “ability … compared to recombinant human VKOR” value (5 μM KO, 2 μM warfarin) was “consistently better; also recorded: considerably more active”. Under “5 μM KO, 2 μM warfarin, listed as Nematostella Y135F”, the “ability … compared to recombinant human VKOR” value is “greater ability to stimulate carboxylation”.

B10: Acropora: Acropora VKOR (translation of EZ012735, SEQ ID NO:9), Y136F warfarin resistant (protein, listed as Acropora millepora)
chain: MVSFLGISRLLVCLAGIALSIYALHVELSKAHDKDYKALCDINEHMSCSKVFTSKYGTGFGLVEPLLGKNHPFNVPNSIFGIIFYSLIIILGVVSGKFAALMMFLFSLASCVGSVYLGYILFYILHDTCVVCISTYVVNACLFVINMITLNDALSAPSPKKKKN
Take B10: the “Relative activity: Human Y139F” value is recorded as “Yes, greater”. Further, the “ability … compared to recombinant human VKOR” value (5 μM KO, 2 μM warfarin) is recorded as “also promotes carboxylation of the reporter protein”.

The values are drawn from patent US9631002B2, “Methods and compositions for producing active vitamin K-dependent proteins” (The University of North Carolina at Chapel Hill, priority 2010, dated 2017).
